# Reference: the supplement of paper PMC10065799, “High-throughput profiling of sequence recognition by tyrosine kinases and SH2 domains using bacterial peptide display” (eLife, 2023)
# Tests used:
# c-Src SH2 = experiment: SH2 binding enrichment of the phosphorylated peptide, bacterial display (enrichment ratio); higher = better substrate or ligand; peptides without Tyr show the background
# Grb2 SH2 = Grb2 SH2 (UniProt P62993); experiment: as above
# SHP2-C SH2 = experiment: as above
# Fyn = Fyn (UniProt P06241); experiment: phosphorylation enrichment, bacterial display (enrichment ratio); higher = better substrate or ligand; peptides without Tyr show the background
# AncSZ = experiment: as above
# Fer (mouse) = experiment: as above
# MERTK = MERTK (UniProt Q12866); experiment: as above
# Chain of MERTK (Q12866 whole entry, looked up): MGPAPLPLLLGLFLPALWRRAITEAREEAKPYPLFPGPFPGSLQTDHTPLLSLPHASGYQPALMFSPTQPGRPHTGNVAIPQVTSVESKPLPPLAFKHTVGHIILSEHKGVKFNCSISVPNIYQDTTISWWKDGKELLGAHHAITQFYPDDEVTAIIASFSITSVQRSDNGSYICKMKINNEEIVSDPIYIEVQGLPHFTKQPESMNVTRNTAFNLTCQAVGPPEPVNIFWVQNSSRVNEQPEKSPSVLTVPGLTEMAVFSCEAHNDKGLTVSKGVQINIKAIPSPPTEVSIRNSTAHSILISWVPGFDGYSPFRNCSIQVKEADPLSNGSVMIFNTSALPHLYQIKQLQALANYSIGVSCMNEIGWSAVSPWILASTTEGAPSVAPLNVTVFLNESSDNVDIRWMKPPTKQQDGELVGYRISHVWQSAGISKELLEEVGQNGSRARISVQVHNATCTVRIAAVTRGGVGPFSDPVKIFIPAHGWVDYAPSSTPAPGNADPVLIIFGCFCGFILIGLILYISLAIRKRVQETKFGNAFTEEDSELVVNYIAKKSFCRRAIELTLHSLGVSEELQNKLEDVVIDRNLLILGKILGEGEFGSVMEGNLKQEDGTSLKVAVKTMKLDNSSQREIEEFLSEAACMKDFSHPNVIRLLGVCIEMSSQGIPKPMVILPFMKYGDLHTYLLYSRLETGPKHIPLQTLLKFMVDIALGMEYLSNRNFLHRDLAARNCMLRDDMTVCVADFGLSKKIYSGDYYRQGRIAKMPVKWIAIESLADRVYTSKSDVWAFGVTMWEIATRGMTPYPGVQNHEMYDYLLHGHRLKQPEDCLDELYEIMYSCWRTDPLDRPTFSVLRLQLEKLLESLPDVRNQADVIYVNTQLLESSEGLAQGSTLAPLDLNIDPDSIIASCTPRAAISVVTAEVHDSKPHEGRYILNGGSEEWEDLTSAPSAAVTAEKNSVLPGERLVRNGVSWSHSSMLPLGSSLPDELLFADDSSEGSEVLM
# c-Abl (mouse) = experiment: as above
# Fes = Fes (UniProt P07332); experiment: as above
# Chain of Fes (P07332 whole entry, looked up): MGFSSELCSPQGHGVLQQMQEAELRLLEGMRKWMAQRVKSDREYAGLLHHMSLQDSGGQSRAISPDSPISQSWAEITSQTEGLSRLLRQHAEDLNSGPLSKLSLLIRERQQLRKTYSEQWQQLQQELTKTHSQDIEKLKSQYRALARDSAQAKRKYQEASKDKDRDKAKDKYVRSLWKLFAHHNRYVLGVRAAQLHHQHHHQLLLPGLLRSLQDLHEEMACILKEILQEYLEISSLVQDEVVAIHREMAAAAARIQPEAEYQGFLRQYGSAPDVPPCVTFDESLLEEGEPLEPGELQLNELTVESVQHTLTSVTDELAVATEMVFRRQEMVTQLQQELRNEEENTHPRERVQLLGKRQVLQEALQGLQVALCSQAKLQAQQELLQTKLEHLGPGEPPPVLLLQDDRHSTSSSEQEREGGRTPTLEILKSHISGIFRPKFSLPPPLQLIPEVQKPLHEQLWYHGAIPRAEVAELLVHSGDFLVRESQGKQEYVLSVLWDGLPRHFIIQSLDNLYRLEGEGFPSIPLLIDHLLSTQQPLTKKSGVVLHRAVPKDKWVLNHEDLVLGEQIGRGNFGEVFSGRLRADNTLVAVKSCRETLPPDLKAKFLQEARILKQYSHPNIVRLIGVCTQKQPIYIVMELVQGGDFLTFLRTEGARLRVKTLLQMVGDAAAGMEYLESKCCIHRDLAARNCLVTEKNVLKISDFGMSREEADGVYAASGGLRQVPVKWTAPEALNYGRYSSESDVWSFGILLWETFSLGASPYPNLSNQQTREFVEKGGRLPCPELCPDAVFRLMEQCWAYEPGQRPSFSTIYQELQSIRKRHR
# EPHB1 = EPHB1 (UniProt P54762); experiment: as above
# Chain of EPHB1 (P54762 whole entry, looked up): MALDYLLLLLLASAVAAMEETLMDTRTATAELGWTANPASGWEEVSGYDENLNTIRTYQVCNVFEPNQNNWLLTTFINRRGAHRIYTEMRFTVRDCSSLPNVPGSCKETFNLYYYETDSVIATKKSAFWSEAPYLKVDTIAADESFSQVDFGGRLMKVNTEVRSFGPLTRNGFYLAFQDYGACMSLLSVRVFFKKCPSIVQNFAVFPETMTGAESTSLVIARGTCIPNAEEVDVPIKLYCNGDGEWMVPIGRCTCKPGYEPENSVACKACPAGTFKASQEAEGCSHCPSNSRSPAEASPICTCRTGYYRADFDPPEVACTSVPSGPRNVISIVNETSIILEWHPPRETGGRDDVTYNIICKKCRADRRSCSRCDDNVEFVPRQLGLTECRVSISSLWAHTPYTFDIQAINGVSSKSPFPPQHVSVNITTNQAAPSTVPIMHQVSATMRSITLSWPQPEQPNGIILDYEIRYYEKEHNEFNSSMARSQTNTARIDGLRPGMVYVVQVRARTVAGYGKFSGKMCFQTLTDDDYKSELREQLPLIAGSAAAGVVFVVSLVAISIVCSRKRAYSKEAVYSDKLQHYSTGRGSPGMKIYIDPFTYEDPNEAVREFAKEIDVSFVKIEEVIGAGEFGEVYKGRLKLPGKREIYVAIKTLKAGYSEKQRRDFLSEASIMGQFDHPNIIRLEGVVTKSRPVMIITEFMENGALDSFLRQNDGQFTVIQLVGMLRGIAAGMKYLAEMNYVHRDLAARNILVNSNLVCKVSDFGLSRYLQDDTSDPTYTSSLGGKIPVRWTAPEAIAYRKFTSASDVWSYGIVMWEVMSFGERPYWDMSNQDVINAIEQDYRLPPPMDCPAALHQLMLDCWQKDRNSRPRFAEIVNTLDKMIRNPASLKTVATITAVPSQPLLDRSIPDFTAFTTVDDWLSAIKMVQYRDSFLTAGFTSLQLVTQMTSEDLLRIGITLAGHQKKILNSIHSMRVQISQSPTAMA
# Hck = Hck (UniProt P08631); experiment: as above
# Chain of Hck (P08631 whole entry, looked up): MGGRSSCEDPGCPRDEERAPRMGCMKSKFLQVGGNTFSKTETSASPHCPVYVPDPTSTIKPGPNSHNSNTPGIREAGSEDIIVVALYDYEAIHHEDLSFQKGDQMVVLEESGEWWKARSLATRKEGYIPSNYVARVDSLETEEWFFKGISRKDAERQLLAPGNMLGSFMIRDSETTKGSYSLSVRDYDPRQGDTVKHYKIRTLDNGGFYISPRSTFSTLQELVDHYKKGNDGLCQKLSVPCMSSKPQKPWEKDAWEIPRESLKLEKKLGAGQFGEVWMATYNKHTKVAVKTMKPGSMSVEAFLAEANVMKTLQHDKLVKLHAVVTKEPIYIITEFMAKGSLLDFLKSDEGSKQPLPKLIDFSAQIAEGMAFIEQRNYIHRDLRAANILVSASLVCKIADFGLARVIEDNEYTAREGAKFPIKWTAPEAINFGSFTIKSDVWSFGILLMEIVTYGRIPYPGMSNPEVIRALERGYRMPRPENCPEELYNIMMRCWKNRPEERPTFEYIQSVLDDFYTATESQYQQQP
# Jak2 = Jak2 (UniProt O60674); experiment: as above
# Chain of Jak2 (O60674 whole entry, looked up): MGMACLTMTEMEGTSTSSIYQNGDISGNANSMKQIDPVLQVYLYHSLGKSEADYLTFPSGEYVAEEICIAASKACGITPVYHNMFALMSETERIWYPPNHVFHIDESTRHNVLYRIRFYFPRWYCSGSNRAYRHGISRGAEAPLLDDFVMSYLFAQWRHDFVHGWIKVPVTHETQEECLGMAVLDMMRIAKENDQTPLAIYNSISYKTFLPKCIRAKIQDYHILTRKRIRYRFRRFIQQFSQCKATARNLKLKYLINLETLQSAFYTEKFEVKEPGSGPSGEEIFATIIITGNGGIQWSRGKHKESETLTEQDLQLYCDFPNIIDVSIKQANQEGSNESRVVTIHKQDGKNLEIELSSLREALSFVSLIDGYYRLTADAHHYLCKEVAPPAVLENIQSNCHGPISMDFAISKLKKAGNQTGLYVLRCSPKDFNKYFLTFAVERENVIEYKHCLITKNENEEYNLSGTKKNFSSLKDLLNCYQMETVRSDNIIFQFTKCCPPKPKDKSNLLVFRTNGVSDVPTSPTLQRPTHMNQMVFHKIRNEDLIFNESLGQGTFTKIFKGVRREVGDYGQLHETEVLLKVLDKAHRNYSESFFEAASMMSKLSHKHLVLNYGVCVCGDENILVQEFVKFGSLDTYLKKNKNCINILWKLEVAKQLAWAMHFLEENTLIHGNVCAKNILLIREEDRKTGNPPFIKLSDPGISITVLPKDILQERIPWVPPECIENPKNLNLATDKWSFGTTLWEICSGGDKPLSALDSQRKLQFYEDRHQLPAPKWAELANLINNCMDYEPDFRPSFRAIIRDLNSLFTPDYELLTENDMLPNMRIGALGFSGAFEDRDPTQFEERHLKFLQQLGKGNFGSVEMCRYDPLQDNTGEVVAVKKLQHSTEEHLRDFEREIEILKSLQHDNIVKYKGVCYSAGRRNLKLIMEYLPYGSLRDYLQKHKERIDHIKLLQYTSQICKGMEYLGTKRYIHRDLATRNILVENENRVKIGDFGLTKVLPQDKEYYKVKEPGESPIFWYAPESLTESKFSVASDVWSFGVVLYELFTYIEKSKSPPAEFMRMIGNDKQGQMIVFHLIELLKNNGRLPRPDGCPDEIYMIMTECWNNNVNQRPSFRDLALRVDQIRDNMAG
# FGFR1 = FGFR1 (UniProt P11362); experiment: as above
# c-Src = experiment: as above
# FGFR3 = FGFR3 (UniProt P22607); experiment: as above
# EPHB2 = EPHB2 (UniProt P29323); experiment: as above
# 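For SH2 binding enrichment of the phosphorylated peptide, bacterial display in this document: peptide library displayed on the E. coli surface as eCPX fusions, selected cells deep-sequenced, score is each peptide's frequency after selection divided by its frequency in the input.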
# 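For phosphorylation enrichment, bacterial display in this document: 11-residue human phosphosite peptides and single-mutation variants displayed on the E. coli surface, counted by deep sequencing, each peptide's frequency after selection divided by its frequency in the unselected input library; frequency after pTyr selection over input frequency; kinase dosed for 20-30% of maximal phosphorylation in three min.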
# Chain of Grb2 SH2 (P62993 whole entry, looked up): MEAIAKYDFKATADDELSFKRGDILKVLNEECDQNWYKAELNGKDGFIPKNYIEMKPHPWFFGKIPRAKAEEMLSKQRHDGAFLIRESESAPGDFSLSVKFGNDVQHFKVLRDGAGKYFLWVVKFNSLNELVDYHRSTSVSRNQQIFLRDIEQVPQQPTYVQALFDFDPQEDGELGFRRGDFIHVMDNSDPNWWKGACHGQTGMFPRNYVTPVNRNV
Sequence,SH2 binding enrichment (c-Src SH2),SH2 binding enrichment (Grb2 SH2),SH2 binding enrichment (SHP2-C SH2),phosphorylation enrichment (Fyn),phosphorylation enrichment (AncSZ),phosphorylation enrichment (Fer (mouse)),phosphorylation enrichment (MERTK),phosphorylation enrichment (c-Abl (mouse)),phosphorylation enrichment (Fes),phosphorylation enrichment (EPHB1),phosphorylation enrichment (Hck),phosphorylation enrichment (Jak2),phosphorylation enrichment (FGFR1),phosphorylation enrichment (c-Src),phosphorylation enrichment (FGFR3),phosphorylation enrichment (EPHB2)
LSSNLYFRWLT [CNGA3_Y168_P163L_YF],0.531,0.655,1.01,0.595,1.76,1.01,4.32,1.79,1.64,0.783,1.73,5.07,1.15,1.21,1.51,0.749
ATHRGYDLDNP [MMUT_Y146_S148L],0.384,0.721,0.654,0.392,0.64,0.413,0.343,0.614,0.79,0.459,0.411,0.698,0.409,0.377,0.727,0.434
RLTEGYTGPFK [ZNF862_Y181_I178T],0.522,1.14,0.547,0.473,0.519,0.382,0.402,0.426,0.611,0.323,0.509,0.625,0.364,0.423,0.456,0.41
AVLSLYASGST [ACTG2_Y144_R148S],0.611,1.06,0.907,0.476,1.08,0.558,0.414,0.829,1.26,0.729,0.638,1.09,0.572,0.541,0.723,0.722
KFLENYLNRLL [PLD2_Y169_YF],1.51,1.67,1.79,0.37,0.694,0.462,0.37,0.471,0.768,0.464,0.415,0.762,0.499,0.481,0.562,0.642
LAIERYVVVSK [RHO_Y136_C140S],1.51,0.627,1.33,0.596,0.86,0.459,0.515,0.935,1.04,0.499,0.443,0.744,0.843,0.396,0.701,3.45
RVILRYVNPGT [LAMA3_Y791],0.717,1.44,0.632,0.591,1.06,0.606,0.385,0.663,1.13,0.838,0.561,0.947,0.538,0.448,0.883,0.666
ITVPAYFNDSQ [HSPA9_Y196],0.498,1.08,0.878,0.553,0.895,0.54,0.456,0.785,1.06,0.473,0.528,1.02,0.581,0.536,0.672,0.491
DFKIIYIVPMR [SNRNP200_Y540_A542V],1.08,1.67,2.13,0.412,1.09,0.487,0.366,1.74,1.11,0.525,0.382,0.952,0.55,0.42,0.653,0.532
ANSPVYVPTTR [GATA6_Y188_S184N],0.506,0.834,0.783,0.384,0.506,0.44,0.468,0.52,0.667,0.371,0.583,0.821,0.419,0.448,0.441,0.405
NVTRKYTRQIL [MAP3K2_Y463],0.477,0.853,0.644,0.372,0.363,0.305,0.319,0.397,0.411,0.333,0.265,0.339,0.316,0.373,0.353,0.264
AVEDQYFCVDC [FHL1_Y207_YF],0.662,0.849,0.736,0.775,2.15,0.7,0.622,0.868,1.64,1.17,0.791,1.48,5.2,0.703,3.66,0.862
SSTAMYSAAGR [PSMB1_Y8_P11A],0.774,0.897,0.609,0.403,0.451,0.442,0.511,0.444,0.455,0.35,0.755,0.458,0.512,0.424,0.342,0.364
DLLMQHPKAQG [FAM83C_Y600_Y600H],0.466,0.996,0.836,0.509,0.566,0.483,0.53,1.46,0.693,0.515,0.523,0.801,0.5,0.646,0.892,0.332
PGVDRYSLGTS [C5orf42_Y1451],0.262,0.576,0.762,0.702,0.789,0.57,0.788,0.741,0.973,0.577,0.678,0.769,0.755,0.737,0.745,0.788
